This note sets out measurements from publication PMC3744807.

In the series the target is PARP-1 F1+F2 (UniProt P09874 1-214). In words: pull-down.
Sequence of PARP-1 F1+F2 (P09874 1-214): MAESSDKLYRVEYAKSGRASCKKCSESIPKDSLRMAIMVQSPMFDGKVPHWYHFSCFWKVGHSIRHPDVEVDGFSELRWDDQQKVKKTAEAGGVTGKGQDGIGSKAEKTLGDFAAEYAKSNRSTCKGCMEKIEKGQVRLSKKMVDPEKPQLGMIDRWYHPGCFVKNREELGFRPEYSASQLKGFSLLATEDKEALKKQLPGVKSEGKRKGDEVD

B1: 15 bp duplex, biotinylated (dsDNA)
DNA 1: ACTGCGTTTATGTAT
DNA 2: ATACATAAACGCAGT
Consider B1, for which the binding result is “binds”.
